Here are results for five molecules from patent publication US20200339702A1 (ULTRAHUMAN THIRTEEN, published 2020).

The target of one assay is T1, human insulin (human, UniProt P01308 25-54; P01308 90-110, limits assumed).
T1 construct: Off-target protein in the development risk (polyreactivity) ELISA
Description: development risk ELISA on insulin. A general note: In an ELISA, binding on a coated surface is turned into a signal by an enzyme label.

The target in assay [1] is T2, rhesus monkey ERBB3 human Fc tagged recombinant protein (rhesus monkey (Macaca mulatta), UniProt P21860 20-643 (human entry), limits assumed).
T2 construct: also called rhesus ERBB3-Fc; rhERBB3
T2 chain: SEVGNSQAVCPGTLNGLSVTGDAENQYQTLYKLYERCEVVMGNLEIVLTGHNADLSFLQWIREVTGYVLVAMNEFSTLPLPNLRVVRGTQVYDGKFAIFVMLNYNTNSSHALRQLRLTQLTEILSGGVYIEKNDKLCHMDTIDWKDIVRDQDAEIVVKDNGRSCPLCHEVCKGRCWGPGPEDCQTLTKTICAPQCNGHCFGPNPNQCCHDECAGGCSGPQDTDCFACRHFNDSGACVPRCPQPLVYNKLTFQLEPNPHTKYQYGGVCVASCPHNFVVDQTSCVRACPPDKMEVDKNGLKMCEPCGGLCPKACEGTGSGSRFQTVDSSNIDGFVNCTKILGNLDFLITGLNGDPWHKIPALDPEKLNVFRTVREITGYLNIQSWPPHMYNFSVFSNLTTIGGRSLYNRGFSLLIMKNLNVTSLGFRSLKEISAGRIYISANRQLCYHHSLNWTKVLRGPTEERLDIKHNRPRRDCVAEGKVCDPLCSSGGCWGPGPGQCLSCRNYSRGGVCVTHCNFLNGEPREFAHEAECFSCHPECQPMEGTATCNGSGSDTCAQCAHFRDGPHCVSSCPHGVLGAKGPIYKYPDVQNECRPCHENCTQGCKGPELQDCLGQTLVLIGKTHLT
Description: direct binding ELISA on coated rhesus ERBB3-Fc, IgG1 titrated. The method, then: (§1) Binding and cross-reactivity of the lead panel to the recombinant proteins was initially assessed by binding ELISA. The human ERBB3 human Fc tagged recombinant protein and the rhesus monkey ERBB3 human Fc tagged recombinant protein were coated to the surface of MaxiSorp™ flat-bottom 96 well plate at 1 μg/ml. The purified IgG samples were titrated in two fold serial dilutions starting from 500 nM to 0.008 nM and allowed to bind to the coated antigens. The Fabs were detected using mouse anti-c-myc antibody followed by donkey anti-mouse IgG conjugated to horseradish peroxidase. The IgGs were detected using the mouse anti-human IgG conjugated to horseradish peroxidase. Binding signals were visualized with 3,3′,5,5′-Tetramethylbenzidine Substrate Solution (TMB) and the absorbance measured at 450 nm.

The target in assay [2] is T3, rhesus ERBB3 on transiently transfected HEK-293 cells (rhesus monkey (Macaca mulatta), UniProt P21860 20-1342 (human entry)).
T3 construct: also called rhesus ERBB3+ HEK-293 cells
T3 chain: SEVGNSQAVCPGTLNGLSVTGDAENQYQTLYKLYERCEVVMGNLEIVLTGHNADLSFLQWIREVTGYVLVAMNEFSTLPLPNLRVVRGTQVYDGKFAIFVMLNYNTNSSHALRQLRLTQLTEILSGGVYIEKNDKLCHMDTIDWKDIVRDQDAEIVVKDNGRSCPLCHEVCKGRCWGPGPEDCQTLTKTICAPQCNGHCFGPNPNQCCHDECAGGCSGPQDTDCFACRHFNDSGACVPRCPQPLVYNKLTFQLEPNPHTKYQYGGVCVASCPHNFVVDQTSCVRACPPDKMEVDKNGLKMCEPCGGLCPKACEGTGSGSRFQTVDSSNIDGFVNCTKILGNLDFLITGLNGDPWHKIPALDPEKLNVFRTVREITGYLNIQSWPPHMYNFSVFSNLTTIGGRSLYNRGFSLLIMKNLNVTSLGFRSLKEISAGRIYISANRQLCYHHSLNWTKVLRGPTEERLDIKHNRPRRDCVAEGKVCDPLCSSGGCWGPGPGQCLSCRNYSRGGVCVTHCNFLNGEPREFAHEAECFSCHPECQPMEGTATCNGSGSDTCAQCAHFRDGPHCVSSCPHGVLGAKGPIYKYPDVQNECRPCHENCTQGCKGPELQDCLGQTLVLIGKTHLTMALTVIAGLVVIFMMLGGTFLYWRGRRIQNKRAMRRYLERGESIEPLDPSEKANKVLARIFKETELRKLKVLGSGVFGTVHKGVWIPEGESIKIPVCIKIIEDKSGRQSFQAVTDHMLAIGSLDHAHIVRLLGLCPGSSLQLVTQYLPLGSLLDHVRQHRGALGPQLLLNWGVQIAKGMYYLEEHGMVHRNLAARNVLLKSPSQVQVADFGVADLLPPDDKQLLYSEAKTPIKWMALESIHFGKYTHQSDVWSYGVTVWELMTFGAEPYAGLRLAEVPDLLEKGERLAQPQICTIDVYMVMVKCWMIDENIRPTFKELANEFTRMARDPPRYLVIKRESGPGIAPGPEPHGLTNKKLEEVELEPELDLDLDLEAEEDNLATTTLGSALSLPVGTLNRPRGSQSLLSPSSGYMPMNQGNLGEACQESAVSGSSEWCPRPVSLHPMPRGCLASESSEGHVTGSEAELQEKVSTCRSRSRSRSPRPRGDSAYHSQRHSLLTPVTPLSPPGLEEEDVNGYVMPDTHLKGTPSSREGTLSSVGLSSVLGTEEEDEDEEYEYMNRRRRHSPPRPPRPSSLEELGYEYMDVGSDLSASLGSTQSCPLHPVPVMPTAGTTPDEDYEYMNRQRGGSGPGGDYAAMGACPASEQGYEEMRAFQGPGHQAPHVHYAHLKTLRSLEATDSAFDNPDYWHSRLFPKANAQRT
Put plainly: flow cytometry, rhesus ERBB3-transfected HEK-293 cells, IgG1 titrated. The method, then:
(§2) Purified IgGs were tested in FACs for binding to human and rhesus monkey ERBB3 expressed on transiently transfected HEK-293 cells and HEK-293 wild-type cells. The IgG samples were titrated in three-fold serial dilutions starting at 500 nM to 0.008 nM. Binding of IgGs was detected with a mouse anti-human IgG conjugated to FITC. Results were analyzed by examining the Mean Fluorescence Intensity (MFI) of 10000 cells per sample in the BL-1 channel detector of a flow cytometer (Attune™ NxT Acoustic Focusing Cytometer, Invitrogen/ThermoFisher Scientific).
For orientation: Flow cytometry measures light scatter and fluorescence of single cells or particles in a stream.

Assay [3] concerns the target T4, human ERBB3 His tagged, monomeric (human, UniProt P21860 20-643, biotinylated in the Alphascreen assays (sites not given)).
T4 construct: Used unbiotinylated as Biacore analyte and biotinylated in Alphascreen; treated as one molecule; also called human ERBB3-His (Acrobiosystems); biotinylated monomeric human ERBB3
Description: Alphascreen competition in solution, competitor h24C05 IgG1, biotinylated human ERBB3-His. (In general: Alpha assays give light when donor and acceptor beads are brought close together.)

For assay [4], the target named is T5, human ERBB3 on transiently transfected HEK-293 cells (human, UniProt P21860 20-1342).
T5 construct: also called human ERBB3+ HEK-293 cells
Put plainly: flow cytometry, human ERBB3-transfected HEK-293. The protocol:
as §2
(§3) Antibodies to ERBB3 were analysed for concentration-dependent binding at the cell surface via flow cytometry. HEK-293 cells were transiently transfected with either human or rhesus ERBB3 full-length cDNAs. Anti-ERBB3 IgGs and an isotype control were then all tested in IgG1null format, over a concentration range of 500-0.008 nM for binding to human (FIG. 5A) and rhesus (FIG. 5B) transfected cells.

In assay [5] the target is T3, rhesus ERBB3 on transiently transfected …. Description: flow cytometry, rhesus ERBB3-transfected HEK-293. The protocol: as §2, §3
The target in assay [6] is T4, human ERBB3 His tagged, monomeric. Description: SPR (Biacore), captured IgG, monomeric ERBB3-His analyte. The method, then:
(§4) Affinity (KD) of purified IgGs was determined via SPR with antigen in-solution on a Biacore® 3000 (GE). A mouse anti-human antibody (CH1 specific) was immobilized on a CM5 Sensor Chip to a level of 2000 RU in acetate buffer at pH 4.5 using amine coupling following the Wizard instructions for two channels. One channel was used for background signal correction. The standard running buffer HBS-EP pH 7.4 was used. Regeneration was performed with a single injection of 10 μl of 10 mM Glycine at pH 1.5 at […]. IgG samples were injected for 2 minutes at 50 nM at 30 μl/min followed by an off-rate of 60 seconds. The monomeric antigen (human ERBB3 His tagged or rhesus monkey ERBB3 His tag) was injected in two fold serial dilutions from 3 nM down to 0.2 nM, for 2 minutes at 30 μl/min followed by an off-rate of 300 seconds. The obtained sensorgrams were analysed using the Biacore® 3000 evaluation (BlAevaluation) software. The KD was calculated by simultaneous fitting of the association and dissociation phases to a 1:1 Langmuir binding model.
(§5) Biacore® analyses of binding affinity were performed for all IgGs to solution-phase, monomeric human and rhesus ERBB3 proteins.

For assay [7], the target named is T6, rhesus monkey ERBB3 His tag, monomeric (rhesus monkey (Macaca mulatta), UniProt P21860 20-643 (human entry), limits assumed).
T6 chain: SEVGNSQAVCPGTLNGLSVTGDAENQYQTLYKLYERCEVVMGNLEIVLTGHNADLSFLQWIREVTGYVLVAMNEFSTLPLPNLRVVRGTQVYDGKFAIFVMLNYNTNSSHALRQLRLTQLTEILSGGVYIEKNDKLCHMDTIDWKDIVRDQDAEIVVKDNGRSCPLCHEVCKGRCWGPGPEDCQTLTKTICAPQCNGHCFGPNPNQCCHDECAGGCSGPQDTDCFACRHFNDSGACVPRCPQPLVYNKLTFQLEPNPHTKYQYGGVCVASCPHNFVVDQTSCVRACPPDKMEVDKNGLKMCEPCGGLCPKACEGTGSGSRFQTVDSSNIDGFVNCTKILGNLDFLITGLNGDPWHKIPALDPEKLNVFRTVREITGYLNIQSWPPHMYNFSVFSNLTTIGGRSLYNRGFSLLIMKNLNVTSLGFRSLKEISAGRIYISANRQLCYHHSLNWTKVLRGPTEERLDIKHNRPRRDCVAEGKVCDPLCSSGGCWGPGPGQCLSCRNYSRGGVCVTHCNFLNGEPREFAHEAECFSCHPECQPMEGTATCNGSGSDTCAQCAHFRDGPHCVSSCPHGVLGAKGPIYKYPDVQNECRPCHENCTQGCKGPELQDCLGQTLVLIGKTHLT
The assay is described as above. The method, then: as §4, §5

Assay [8] addresses T5, human ERBB3 on transiently transfected …. Description: flow cytometry, human ERBB3-transfected HEK-293 cells, IgG1 titrated. The method, then: as §2
The target in assay [9] is T7, human ERBB3 human Fc tagged recombinant protein (human, UniProt P21860 20-643).
T7 construct: also called human ERBB3-Fc; huERBB3
Description: direct binding ELISA on coated human ERBB3-Fc, IgG1 titrated. The protocol:
as §1

Usually Kd stands for a measure of binding affinity in units of concentration. As a reminder, the koff is a measure of how fast the partners let go of each other. The kon is the second-order rate constant of association. As a reminder, the EC50 (read off the curve) is the concentration that produces a half-maximal response.

T1 sequence (P01308 25-54 limits assumed, chain 1 of 2): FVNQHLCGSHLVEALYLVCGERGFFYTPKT
T1 sequence (P01308 90-110 limits assumed, chain 2 of 2): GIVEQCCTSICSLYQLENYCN

B1: 15G11-DI1 IgG1 (antibody, V domains shown)
VH: QVQLVESGGGLVKPGGSLRLSCAASGFTFSDYGMSWVRQAPGKGLEWVSTISDSGSYTYYPDSVKGRFTISRDNAKNSLYLQMNSLRAEDTAVYYCARELGDYDGFDYWGQGTLVTVSS
VL: DIQMTQSPSSLSASVGDRVTITCRASQEISSYLSWYQQKPGKAPKLLIYAASSLDTGVPSRFSGSGSGTDFTLTISSLQPEDFATYYCLQYDSTPYTFGGGTKVEIK
notes: Human IgG1 format, human Ckappa
The molecule B1 registered a binding score with human insulin of less than 10. Further, the binding result in [1] and in [2] was “binds” each time. Moreover, the “IC50 (read off the curve)” value in assay [3] is roughly 0.5 nM.

B2: MH2 IgG1null (antibody, V domains shown)
VH: QVQLVESGGGLVKPGGSLRLSCAASGFTFSDYGMSWIRQAPGKGLEWVSTISDSGSYIYYADSVKGRFTISRDNAKNSLYLQMNSLRAEDTAVYYCAREWGDYDGFDFWGQGTLVTVSS
VL: DIQMTQSPSSLSASVGDRVTITCRASQSISSYLSWYQQKPGKAPKLLIYAASSLQSGVPSRFSGSGSGTDFTLTISSLQPEDFATYYCLQYDSTPLTFGGGTKVEIK
notes: Designer (Maximally Humanized) clone; Human IgG1null and human Ckappa
In the case of B2, in assay [4], the “maximum MFI, fold over isotype control background” value is greater than 20 fold. The “maximum MFI, fold over isotype control background” value in assay [5] was greater than 20 fold. In assay [6], binding was characterised by a dissociation constant (Kd) of 0.27 nM, the koff turned out to be 0.0029 s⁻¹ and the kon was determined as 1.1e+07 M⁻¹ s⁻¹. In [7], this molecule registered a Kd of 0.23 nM, a koff of 0.0048 s⁻¹ and a kon of 2e+07 M⁻¹ s⁻¹.

B3: 15G11-DI6 IgG1 (antibody, V domains shown)
VH: QVQLVESGGGLVKPGGSLRLSCAASGFTFSDYSMSWIRQAPGKGLEWVSTISDSGTYTYYPDSVKGRFTISRDNAKNSLYLQMNSLRAEDTAVYYCAREWGDYDGFDFWGQGTLVTVSS
VL: DIQMTQSPSSLSASVGDRVTITCRASQEISTYLSWYQQKPGKAPKLLIYAASSLDTGVPSRFSGSGSGTDFTLTISSLQPEDFATYYCLQYDSTPYTFGGGTKVEIK
notes: as for B1
Turning to B3, in the assay with human insulin, the binding score is less than 10. The binding result in [1] was “binds”. Also, the “EC50 (read off the curve)” value in [8] is roughly 1 nM; in [2] it was roughly 0.3 nM.

B4: 15G11-DI5 IgG1 (antibody, V domains shown)
VH: QVQLVESGGGLVKPGGSLRLSCAASGFTFSDYSMSWIRQAPGKGLEWVSTISDSGTYTYYPDSVKGRFTISRDNAKNSLYLQMNSLRAEDTAVYYCAREWGDYDGFDFWGQGTLVTVSS
VL: DIQMTQSPSSLSASVGDRVTITCRASQEISSYLSWYQQKPGKAPKLLIYAASSLDTGVPSRFSGSGSGTDFTLTISSLQPEDFATYYCLQYDSTPYTFGGGTKVEIK
notes: as for B1
As for B4, the binding score in the assay with human insulin was less than 10. The “EC50 (read off the curve)” value in [9] and in assay [1] was roughly 0.2 nM in each case. Moreover, the binding result in assay [2] is “binds”.

B5: 15G11-DI11 IgG1 (antibody, V domains shown)
VH: QVQLVESGGGLVKPGGSLRLSCAASGFTFSDYGMSWVRQAPGKGLEWVSTISDSGSYTYYPDSVKGRFTISRDNAKNSLYLQMNSLRAEDTAVYYCARELGDYDGFDYWGQGTLVTVSS
VL: DIQMTQSPSSLSASVGDRVTITCRASQEASSYLSWYQQKPGKAPKLLAYAASSLDSGVPSRFSGSGSGTDFTLTISSLQPEDFATYYCLQYDSSPYTFGGGTKVEIK
notes: as for B1
The molecule B5 displayed a binding score with human insulin of less than 10.
